In doi:10.1101/2020.10.08.20209114 (medRxiv, 2020):

B1: monoclonal antibody 7F3 (antibody, V domains shown)
VH: EVQLVESGGGLVKPGRSLRLSCTASGFTFGDYAMSWFRQAPGKGLEWVGFIRSKAYGGTTEYAASVKGRFTISRDDSKSIAYLQMNSLKTEDTAVYYCTRDRYARYDILTGLSPAGADYFYYAMDVWGQGTTVTVSS
VL: EIVLTQSPATLSLSPGERATLSCRASQSVSSYLAWYQQKPGQAPRLLIYDASNRATGIPARFSGSGSGTDFTLTISSLEPEDFAVYYCQQRSNWPQYTFGQGTKLEIK
B2: monoclonal antibody 4L12 (antibody, V domains shown)
VH: EVQLVESGGGLVQPGGSLRLSCAASGITVSSNYMNWVRQAPGRGLEWVSLLYSGGSTYYADSVKGRFTISRDNSKNTLYLQMNSLRAEDTAVYYCARDLITYGMDVWGQGTTVTVSS
VL: AIQLTQSPSSLSASVGDRVTITCRASQGISSYLAWYQQKPGKAPKLLIYAASTLQSGVPSRFSGSGSGTDFTLTISSLQPEDFATYYCQQLNSYPPLTFGGGTKVEIK

Molecular target: SARS-CoV-2 S2 protein (SARS-CoV-2 (Wuhan-Hu-1 assumed), UniProt P0DTC2)
Test: ELISA

Binder | binding result
B1 | no binding
B2 | no binding
